# Positions count from the first letter of the chain named.
# B1: SEQ ID NO 114 (designed binder)
# chain: VSDVPRDLEVVAATPTSLLISWDAPAVTVRYYRITYGEQRYSYYGQQEFTVPGSKSTATISSGRSSVDYTITVYAVTGRGESPASSKPISINYRRSY
# B2: SEQ ID NO 115 (designed binder)
# chain: B1 chain with Q39R, R40P, Y41A, Y44R, G45A, Q46A, G63Y, R64S, S65Y, Y97G
# B3: SEQ ID NO 45 (designed binder)
# chain: VSDVPRDLEVVAATPTSLLISWDAPAVTVRYYRITYGEQAQEEGQEFTVPDSKSTATISAHRSYVDYTITVYAVTGRGESPASSKPISINYYYGE
# B4: SEQ ID NO 109 (designed binder)
# chain: VSDVPRDLEVVAATTTSLLISWDAPAVTVRYYRITYGESGRGAQEFTVPGSKSTATISGLGPPVDYTITVYAVTGRGESPASSKPISINYRSQH
# B5: SEQ ID NO 49 (designed binder)
# chain: VSDVPRDLEVVAATPTSLLISWDAPAVTVRYYRITYGERGSEAERQEFTVPGSKSTATISQAYYGVDYTITVYAVTGRGESPASSKPISINYSYAS
# B6: SEQ ID NO 111 (designed binder)
# chain: VSDVPRDLEVVAATPTSLLISWDAPAVTVRYYRITYGESEGGSSRSQEFTVPGSKSTATISRSYQPVDYTITVYAVTGRGESPASSKPISINYGSYP
# B7: SEQ ID NO 113 (designed binder)
# chain: VSDVPRDLEVVAATPTSLLISWDAPAVTVRYYRITYGERRGQYGSSQEFTVPGSKSTATISSPEGSVDYTITVYAVTGRGESPASSKPISINYSRSE
# B8: SEQ ID NO 54 (designed binder)
# chain: VSDVPRDLEVVAATPTSLLISWDAPAVTVRYYRITYGESLRSREGQEFTVPGSKSTATISGRQESVDYTITVYAVTGRGESPASSKPISINYGQRY
# B9: SEQ ID NO 112 (designed binder)
# chain: VSDVPRDLEVVAATPTSLLISWDAPAVTVRYYRITYGEQYYHQGRRQEFTVPGSKSTATISRYGGSVDYTITVYAVTGRGESPASSKPISINYYAYG
# B10: SEQ ID NO 43 (designed binder)
# chain: VSDVPRDLEVVAATPTSLLISWDAPAVTVRYYRITYGEEAYRSEGQEFTVPGSKSTATISSYGQGVDYTITVYAVTGRGESPASSKPISINYEGSE
# B11: SEQ ID NO 88 (designed binder)
# chain: VSDVPRDLEVVAATPTSLLISWDAPAVTVRYYRITYGESSSSRRQEFTVPGSKSTATISGEESYVDYTITVYAVTGRGESPASSKPISINYAEER
# B12: SEQ ID NO 47 (designed binder)
# chain: VSDVPRDLEVVAATPTSLLISWDAPAVTVRYYRITYGEERGYERSRQEFTVPGSKSTATISESYRYVDYTITVYAVTGRGESPASSKPISINYPHSY
# B13: SEQ ID NO 52 (designed binder)
# chain: VSDVPRDLEVVAATPTSLLISWDAPAVTVRYYRITYGESSRSPRGQEFTVPGSKSTATISRAEYRVDYTITVYAVTGRGESPASSKPISINYYLRQ
# B14: SEQ ID NO 53 (designed binder)
# chain: B13 chain with R41P, S42E, P43Y, R61L, A62E, R65E, A83T, Y93Q, L94Y, Q96Y
# B15: SEQ ID NO 110 (designed binder)
# chain: VSDVPRDLEVVAATPTSLLISWDAPAVTVRYYRITYGESSGYAERGQEFTVPGSKSTATISSPGARVDYTITVYAVTGRGESPASSKPISINYSSLG
# B16: SEQ ID NO 100 (designed binder)
# chain: VSDVPRDLEVVAATPTSLLISWDAPAVTVRYYRITYGEEEEHPQEFTVPGSKSTATISSPQRGVDYTITVYAVTGRGESPASSKPISINYYSYY
# B17: SEQ ID NO 107 (designed binder)
# chain: B16 chain with E39S, E40G, E41R, H42R, P43G, Q61S, R62L, G63E, Y91R, Y93G
# B18: SEQ ID NO 102 (designed binder)
# chain: B16 chain with E39Y, E40G, E41A, H42L, P43E, S59R, P60S, R62A, G63E, Y91A
# B19: SEQ ID NO 46 (designed binder)
# chain: VSDVPRDLEVVAATPTSLLISWDAPAVTVRYYRITYGEYRSYRSERQEFTVPGSKSTATISRGYRAVDYTITVYAVTGRGESPASSKPISINYSYRY
# B20: SEQ ID NO 90 (designed binder)
# chain: VSDVPRDLEVVAATPTSLLISWDAPAVTVRYYRITYGEGERPYQEFTVPGSKSTATISYAHYSVDYTITVYAVTGRGESPASSKPISINYERRS
# B21: SEQ ID NO 93 (designed binder)
# chain: B20 chain with G39Y, E40P, P42E, Y59R, A60Y, H61G, S63H, E91S, R92G, R93Y
# B22: SEQ ID NO 108 (designed binder)
# chain: B20 chain with G39P, E40R, P42R, Y59P, A60G, H61G, Y62Q, E91G, R93G, S94Y
# B23: SEQ ID NO 89 (designed binder)
# chain: VSDVPRDLEVVAATPTSLLISWDAPAVTVRYYRITYGEGRHPSYQEFTVPGSKSTATISPSYSRVDYTITVYAVTGRGESPASSKPISINYSRER
# B24: SEQ ID NO 87 (designed binder)
# chain: VSDVPRDLEVVAATPTSLLISWDAPAVTVRYYRITYGEAYGESYQEFTVPGSKSTATISQSPEYVDYTITVYAVTGRGESPASSKPISINYASEY
# B25: SEQ ID NO 48 (designed binder)
# chain: VSDVPRDLEVVAATPTSLLISWDAPAVTVRYYRITYGEQSGLSEHQEFTVPGSKSTATISSLRYYVDYTITVYAVTGRGESPASSKPISINYAYEY
# B26: SEQ ID NO 98 (designed binder)
# chain: VSDVPRDLEVVAATPTSLLISWDAPAVTVRYYRITYGERSSRSQEFTVPGSKSTATISHSREPVDYTITVYAVTGRGESPASSKPISINYQYRY
# B27: SEQ ID NO 99 (designed binder)
# chain: B26 chain with R39S, S40Q, R42H, S60P, R61S, E62R, Q91P, Y92R, R93S, Y94E
# B28: SEQ ID NO 101 (designed binder)
# chain: B26 chain with R39E, S43P, H59Q, S60A, E62A, P63R, Q91R, Y92R, R93Y, Y94R
# B29: SEQ ID NO 106 (designed binder)
# chain: B26 chain with R39S, S40G, S41Y, S43Y, H59G, S60Y, P63H, Y92E, R93S
# B30: SEQ ID NO 94 (designed binder)
# chain: VSDVPRDLEVVAATPTSLLISWDAPAVTVRYYRITYGEYEHYYQEFTVPGSKSTATISPYAGGVDYTITVYAVTGRGESPASSKPISINYSESE
# B31: SEQ ID NO 103 (designed binder)
# chain: VSDVPRDLEVVAATPTSLLISWDAPAVTVRYYRITYGESREGGQEFTVPGSKSTATISSYQSEVDYTITVYAVTGRGESPASSKPISINYARSR
# B32: SEQ ID NO 105 (designed binder)
# chain: B31 chain with S39G, E41R, G42Y, S59E, Y60L, Q61L, A91S, R92L, S93R, R94Y
# B33: SEQ ID NO 104 (designed binder)
# chain: B31 chain with S39G, R40Q, E41Q, S59A, Q61R, S62G, E63P, A91Y, R92G, R94Y
# B34: SEQ ID NO 44 (designed binder)
# chain: VSDVPRDLEVVAATPTSLLISWDAPAVTVRYYRITYGESSLGSEQEFTVPGSKSTATISEYAPYVDYTITVYAVTGRGESPASSKPISINYYGPG
# B35: SEQ ID NO 95 (designed binder)
# chain: VSDVPRDLEVVAATPTSLLISWDAPAVTVRYYRITYGEYEYARQEFTVPGSKSTATISRLYRRVDYTITVYAVTGRGESPASSKPISINYYRSA
# B36: SEQ ID NO 92 (designed binder)
# chain: B35 chain with Y41R, A42Y, R59S, L60Q, Y61S, R63Y, Y91G, S93P
# B37: SEQ ID NO 97 (designed binder)
# chain: B35 chain with Y39Q, E40R, A42L, R59S, L60R, Y61S, R62A, Y91P, R92Y
# B38: SEQ ID NO 96 (designed binder)
# chain: B35 chain with E40H, A42S, R43E, R59Y, L60Y, Y61E, R62P, Y91H, R92S, A94R
# B39: SEQ ID NO 91 (designed binder)
# chain: VSDVPRDLEVVAATPTSLLISWDAPAVTVRYYRITYGEYQRSRQEFTVPGSKSTATISSYGGYVDYTITVYAVTGRGESPASSKPISINYRSLR
# B40: SEQ ID NO 116 (designed binder)
# chain: VSDVPRDLEVVAATPTSLLISWDAPTVTVRYYRITYGEPQASHRPYQEFTVPGSKSTATISSRSQSVDYTITVYAVTGRGESPASSKPISINYLREL
# B41: SEQ ID NO 50 (designed binder)
# chain: VSDVPRDLEVVAATPTSLLISWDAPAVTVRYYRITYGESLYYHQEFTVPGSKSTATISASYYAVDYTITVYAVTGRGESPASSKPISINYSYHL
# Biological target: T1, hen egg white lysozyme (hen, UniProt P00698 19-147, biotinylated (HEL-b); sites not stated)
# T1 construct: also called lyzozyme; HEL-b (biotinylated)
# T1 sequence (P00698 19-147 limits assumed): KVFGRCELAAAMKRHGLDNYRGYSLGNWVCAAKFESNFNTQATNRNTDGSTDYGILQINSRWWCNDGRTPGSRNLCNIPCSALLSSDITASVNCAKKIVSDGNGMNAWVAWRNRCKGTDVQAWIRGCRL
# Assay: yeast display selection
row,Binder,binding result
1,B1,binds
2,B2,binds
3,B3,binds
4,B4,binds
5,B5,binds
6,B6,binds
7,B7,binds
8,B8,binds
9,B9,binds
10,B10,binds
11,B11,binds
12,B12,binds
13,B13,binds
14,B14,binds
15,B15,binds
16,B16,binds
17,B17,binds
18,B18,binds
19,B19,binds
20,B20,binds
21,B21,binds

row,Binder,binding result
1,B22,binds
2,B23,binds
3,B24,binds
4,B25,binds
5,B26,binds
6,B27,binds
7,B28,binds
8,B29,binds
9,B30,binds
10,B31,binds
11,B32,binds
12,B33,binds
13,B34,binds
14,B35,binds
15,B36,binds
16,B37,binds
17,B38,binds
18,B39,binds
19,B40,binds
20,B41,binds
